This is an account of results in patent publication EP4653533A1 (JCR Pharmaceuticals Co., Ltd., dated 2025).

Like-named read-outs stand apart in the source and are kept apart here.

The target in assay [1] is T1, recombinant monkey TfR (extracellular region of cynomolgus monkey transferrin receptor, N-terminal histidine … (cynomolgus monkey (Macaca fascicularis), UniProt Q5RDH6 89-760 (Pongo abelii entry))).
T1 construct: also called r monkey TfR; monkey TfR-ECD (Histag); not shown: histidine tag at the N-terminus
T1 chain: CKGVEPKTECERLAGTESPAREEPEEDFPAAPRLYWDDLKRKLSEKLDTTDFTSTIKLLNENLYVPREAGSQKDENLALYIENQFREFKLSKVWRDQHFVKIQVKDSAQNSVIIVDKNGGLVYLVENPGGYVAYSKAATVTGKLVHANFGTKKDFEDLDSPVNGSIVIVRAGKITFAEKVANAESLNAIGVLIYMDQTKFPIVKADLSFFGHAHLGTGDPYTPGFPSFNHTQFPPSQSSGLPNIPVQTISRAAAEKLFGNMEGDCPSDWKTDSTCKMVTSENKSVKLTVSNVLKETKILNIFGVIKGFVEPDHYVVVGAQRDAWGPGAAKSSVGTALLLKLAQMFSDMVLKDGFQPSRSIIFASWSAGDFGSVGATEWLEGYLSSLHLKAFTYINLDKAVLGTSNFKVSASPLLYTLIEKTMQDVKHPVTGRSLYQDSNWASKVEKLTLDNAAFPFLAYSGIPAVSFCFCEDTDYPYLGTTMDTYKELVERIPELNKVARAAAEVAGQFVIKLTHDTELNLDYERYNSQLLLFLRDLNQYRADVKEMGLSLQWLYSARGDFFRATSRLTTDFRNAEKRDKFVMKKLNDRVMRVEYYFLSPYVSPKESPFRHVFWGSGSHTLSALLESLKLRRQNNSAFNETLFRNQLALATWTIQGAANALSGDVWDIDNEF
The experiment in a line: BLI (OctetRED96), His-tagged TfR ECD on Ni-NTA biosensor, peptide in solution.

Assay [2] has as its target T2, recombinant hTfR (extracellular region of human transferrin receptor, N-terminal histidine tag) (human, UniProt P02786 89-760).
T2 construct: also called rhTfR; human TfR; not shown: histidine tag at the N-terminus
The assay is described as above.

Assay [3] concerns the target T1, recombinant monkey TfR (extracellular …). The assay is described as above.
In assay [4] the target is T3, recombinant mouse TfR (extracellular region of mouse transferrin receptor, N-terminal histidine tag) (mouse, UniProt Q62351 89-763).
T3 construct: also called r mouse TfR; mouse TfR-ECD (Histag); not shown: histidine tag at the N-terminus
T3 sequence (Q62351 89-763): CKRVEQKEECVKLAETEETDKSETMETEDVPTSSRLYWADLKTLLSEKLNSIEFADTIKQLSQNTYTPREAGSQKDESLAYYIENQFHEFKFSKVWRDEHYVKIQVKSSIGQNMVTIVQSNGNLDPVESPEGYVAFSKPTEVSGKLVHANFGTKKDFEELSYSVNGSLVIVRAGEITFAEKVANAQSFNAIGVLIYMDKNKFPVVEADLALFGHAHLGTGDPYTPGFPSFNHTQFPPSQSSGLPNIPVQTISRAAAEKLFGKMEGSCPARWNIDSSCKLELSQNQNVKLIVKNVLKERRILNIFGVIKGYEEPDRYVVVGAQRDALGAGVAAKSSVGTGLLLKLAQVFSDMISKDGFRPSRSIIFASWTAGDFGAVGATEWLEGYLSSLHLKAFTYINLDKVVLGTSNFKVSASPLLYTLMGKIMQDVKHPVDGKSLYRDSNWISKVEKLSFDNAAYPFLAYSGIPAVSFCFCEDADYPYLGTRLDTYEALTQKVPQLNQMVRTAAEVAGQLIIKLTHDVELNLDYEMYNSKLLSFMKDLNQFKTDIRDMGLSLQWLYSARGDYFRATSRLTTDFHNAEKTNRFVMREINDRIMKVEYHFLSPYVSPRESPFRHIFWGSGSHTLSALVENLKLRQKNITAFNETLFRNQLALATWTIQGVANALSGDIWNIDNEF
The assay is described as above.

Assay [5] deals with T1, recombinant monkey TfR (extracellular …). Description: calculated from BLI KD values; reference is the KD of the same peptide for hTfR.
Assay [6] deals with T3, recombinant mouse TfR (extracellular …). The description is as above.

B1: hTfR affinity peptide 1 (VHH)
VHH: QVQLVESGGGLVQPGESLRLSCAASGSIFDIYVMRWYRQAPGKQREWVASIYDGGRSDYEAVVKGRFIISRDNAKNTGYLQMNSLKPEDTAVYFCNVLIYAGRNYWGQGTQVTVSS
notes: also called Clone 1; VHH(1)
Consider B1, for which the Kd – broadly, a measure of binding affinity in units of concentration – in assay [1] stood at 8.24 nM; in assay [2], 0.932 nM; in assay [3], 82.4 nM; in assay [4] it was 5.31 nM. Also, the “relative value of the dissociation constant (KD with hTfR set to 1)” value is 8.84 fold in assay [5] and 5.7 fold in assay [6].

B2: hTfR affinity peptide 3 (VHH)
VHH: QVQLVESGGGLVQPGESLRISCAASGSIFDIYVMRWYRQAPGKQREWVASIYDGGRSDYVNVVKGRFTISRDNAKNTGDLQMNSLKPEDTAVYFCNVLTYPGRNYWGQGTQVTVSS
notes: It says only that the purified product was obtained in the same manner as peptide 1; also called Clone 2; VHH(3)
Regarding B2, the results for the Kd in assay [2], in assay [3] and in assay [4] were 4.4 nM, 17.4 nM and 5.75 nM, respectively. The “relative value of the dissociation constant (KD with hTfR set to 1)” value in assay [5] is 3.95 fold; in assay [6], 1.31 fold.
